These results are taken from patent publication US20250188176A1 (INVETX, published 2025).

Substitutions are numbered along the chain they refer to.

The experiment deals with T1, Extracellular domain (ECD) of the canine IL-4 receptor alpha-V5 epitope-AviTag-His Tag (canine).
T1 construct: monomeric form isolated by size exclusion; also called canine IL-4RA-V5-Avi-His; canine IL-4RA
T1 chain: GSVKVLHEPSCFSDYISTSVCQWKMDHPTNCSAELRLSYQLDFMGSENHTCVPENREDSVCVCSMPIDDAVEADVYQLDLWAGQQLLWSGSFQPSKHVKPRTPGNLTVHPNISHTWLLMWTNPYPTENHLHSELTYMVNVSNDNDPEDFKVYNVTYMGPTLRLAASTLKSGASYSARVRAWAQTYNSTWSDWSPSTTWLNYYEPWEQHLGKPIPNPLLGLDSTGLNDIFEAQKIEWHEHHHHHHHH
Kind of experiment: SPR, Fab-SASA captured on BSA.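 Note: biacore T200 SPR, Fab-SASA variants from E. coli conditioned medium captured on BSA-coated CM5 chip, canine IL-4RA injected 120 s then 420 s dissociation, 1:1 model fit.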

Method: Forty-four PML clones were selected from each library for expression in E. coli in 96 deep-well plates by inoculating into 2YT medium and inducing with 0.2 mM IPTG overnight at room temperature. The Fab secreted in the medium was analyzed for binding activity by completing an ELISA. […] The 39 unique clones were confirmed by an off-rate screening assay in an SPR assay performed on a Biacore T200. For the SPR analyses, bovine serum albumin (BSA) was immobilized to CM5 sensor chip. The sensor chip surface was activated with 50 mmol/L H-Hydroxysuccinimide and 200 mmol/L 1-ethyl-3-(3-dimethylaminopropyl) carbodiimide hydrochloride for 420 s. Afterwards, BSA diluted in 10 mM sodium acetate, pH 4.5 was injected. After the amine coupling reaction, the remaining active coupling sites on the chip surface were blocked with 1 mM ethanolamine hydrochloride. The selected Fab-SASA variants in conditioned medium were captured on the BSA-coated chips. The running buffer was HBS-EP (10 mM HEPES 500 mM NaCl, 3 mM EDTA, 0.05% Tween 20, pH 7.4). After equilibration, canine IL-4RA was injected for 120 seconds (association phase) followed by the injection of running buffer for 420 sec (dissociation phase). The off-rates of the Fab-SASA clones were obtained from fitting the experimental data locally to a 1:1 interaction model using the Biacore T200 evaluation software.

B1: TB640_005 Fab-SASA VH-K103I (Fab, V domains shown)
VH: EVQLVESGGDLVKPGGSLRLSCVASGFTFRDYAMTWVRQAPGKGLQWVSLISGSGGKTYYADAVKGRFTISRDNAKNTLYLQMNSLRAEDTAVYYCAVDRLTITIRPQYYGLWVWGQGTLVTVSS
VL: DIVMTQTPLSLSVSPGETASISCRSSQSLLYSIGYNYLDWYLQKPGQSPQGLIYLGSKRASGVPDRFSGSGSGTDFTLRISRVEANDTGVYYCMQGLQSPLTFGQGTKLEIKR
notes: not shown: SASA tag then His-tag
As to B1, the Kd was found to be 18.6 nM, the “Ratio WT-kd/clone-kd” value turned out to be 0.99, the off-rate constant (koff) was found to be 0.000967 s⁻¹ and the kon was 51900 M⁻¹ s⁻¹.

B2: TB640_005 Fab-SASA VH-L101M (Fab, V domains shown)
VH: B1 VH with L101M, I103K
VL: B1 VL
notes: as for B1
Turning to B2, the Kd was 7.73 nM, the “Ratio WT-kd/clone-kd” value came to 1.34, the koff is 0.000713 s⁻¹ and the kon is 92300 M⁻¹ s⁻¹.

B3: TB640_005 Fab-SASA VH-V114Q (Fab, V domains shown)
VH: B1 VH with I103K, V114Q
VL: B1 VL
notes: as for B1
In the case of B3, the dissociation constant (Kd) was 7.16 nM, the “Ratio WT-kd/clone-kd” value is 1.41, the koff was 0.000674 s⁻¹ and the association rate constant (kon) is 94100 M⁻¹ s⁻¹.

B4: TB640_005 Fab-SASA VH-L50M (Fab, V domains shown)
VH: B1 VH with L50M, I103K
VL: B1 VL
notes: as for B1
As for B4, binding was put at a Kd of 8.5 nM, the “Ratio WT-kd/clone-kd” value worked out at 0.79, the koff worked out at 0.0012 s⁻¹ and the kon was 141000 M⁻¹ s⁻¹.

B5: TB640_005 Fab-SASA VH-K103R (Fab, V domains shown)
VH: B1 VH with I103R
VL: B1 VL
notes: as for B1
Consider B5, for which the equilibrium dissociation constant (Kd) turned out to be 7.13 nM, the “Ratio WT-kd/clone-kd” value worked out at 1.5, the koff amounted to 0.000636 s⁻¹ and the on-rate (kon) was 89200 M⁻¹ s⁻¹.

B6: TB640_005 Fab-SASA VH-Y110R (Fab, V domains shown)
VH: B1 VH with I103K, Y110R
VL: B1 VL
notes: as for B1
Take B6: the Kd turned out to be 9.6 nM, the “Ratio WT-kd/clone-kd” value was found to be 0.62, the koff amounted to 0.00153 s⁻¹ and the on-rate constant (kon) came to 159000 M⁻¹ s⁻¹.

B7: TB640_005 Fab-SASA VL-I33P (Fab, V domains shown)
VH: B1 VH with I103K
VL: B1 VL with I33P
notes: as for B1
As to B7, binding was characterised by a dissociation constant (Kd) of 12.5 nM, the “Ratio WT-kd/clone-kd” value turned out to be 0.7, the dissociation rate constant (koff) stood at 0.00137 s⁻¹ and the kon was determined as 109000 M⁻¹ s⁻¹.

B8: TB640_005 Fab-SASA VL-L55M (Fab, V domains shown)
VH: B1 VH with I103K
VL: B1 VL with L55M
notes: as for B1
As to B8, the Kd was 7.97 nM, the “Ratio WT-kd/clone-kd” value stood at 1.42, the koff turned out to be 0.000669 s⁻¹ and the on-rate (kon) was 83900 M⁻¹ s⁻¹.

B9: TB640_005 Fab-SASA VH-T28N (Fab, V domains shown)
VH: B1 VH with T28N, I103K
VL: B1 VL
notes: as for B1
As to B9, the Kd came to 11.3 nM, the “Ratio WT-kd/clone-kd” value amounted to 1.22, the off-rate constant (koff) turned out to be 0.00078 s⁻¹ and the association rate constant (kon) came out at 69200 M⁻¹ s⁻¹.

B10: TB640_005 Fab-SASA VH-L50F (Fab, V domains shown)
VH: B1 VH with L50F, I103K
VL: B1 VL
notes: as for B1
For B10, binding was put at a Kd of 15 nM, the “Ratio WT-kd/clone-kd” value came out at 0.49, the koff came out at 0.00193 s⁻¹ and the kon came out at 128000 M⁻¹ s⁻¹.

B11: TB640_005 Fab-SASA VH-S52N (Fab, V domains shown)
VH: B1 VH with S52N, I103K
VL: B1 VL
notes: as for B1
As to B11, binding was characterised by a dissociation constant (Kd) of 1.83 nM, the “Ratio WT-kd/clone-kd” value is 7.88, the off-rate (koff) came out at 0.000112 s⁻¹ and the association rate constant (kon) was 66200 M⁻¹ s⁻¹.

B12: TB640_005 Fab-SASA VL-I33V (Fab, V domains shown)
VH: B1 VH with I103K
VL: B1 VL with I33V
notes: as for B1
For the molecule B12, binding was characterised by a dissociation constant (Kd) of 12.7 nM, the “Ratio WT-kd/clone-kd” value stood at 0.94, the koff came to 0.00101 s⁻¹ and the kon came to 79800 M⁻¹ s⁻¹.

B13: TB640_005 Fab-SASA VL-G96P (Fab, V domains shown)
VH: B1 VH with I103K
VL: B1 VL with G96P
notes: as for B1
Consider B13, for which the Kd was determined as 3.27 nM, the “Ratio WT-kd/clone-kd” value was determined as 2.66, the koff amounted to 0.000358 s⁻¹ and the kon stood at 109000 M⁻¹ s⁻¹.

B14: TB640_005 Fab-SASA VL-A60L (Fab, V domains shown)
VH: B1 VH with I103K
VL: B1 VL with A60L
notes: as for B1
Turning to B14, the dissociation constant Kd came to 5.41 nM, the “Ratio WT-kd/clone-kd” value is 0.98, the off-rate (koff) is 0.000974 s⁻¹ and the kon is 180000 M⁻¹ s⁻¹.

B15: TB640_005 Fab-SASA VL-L30T (Fab, V domains shown)
VH: B1 VH with I103K
VL: B1 VL with L30T
notes: as for B1
As to B15, the affinity, expressed as Kd, was 11.8 nM; the “Ratio WT-kd/clone-kd” value came to 1.54; the koff was determined as 0.000618 s⁻¹; the on-rate constant (kon) is 52200 M⁻¹ s⁻¹.

B16: TB640_005 Fab-SASA VH-Y110L (Fab, V domains shown)
VH: B1 VH with I103K, Y110L
VL: B1 VL
notes: as for B1
Take B16: the Kd came out at 6.65 nM, the “Ratio WT-kd/clone-kd” value was 0.71, the koff was determined as 0.00135 s⁻¹ and the kon is 202000 M⁻¹ s⁻¹.

B17: TB640_005 Fab-SASA VH-L101K (Fab, V domains shown)
VH: B1 VH with L101K, I103K
VL: B1 VL
notes: as for B1
Turning to B17, binding was characterised by a dissociation constant (Kd) of 7.1 nM, the “Ratio WT-kd/clone-kd” value stood at 1.53, the koff was found to be 0.000623 s⁻¹ and the association rate constant (kon) stood at 87800 M⁻¹ s⁻¹.

B18: TB640_005 Fab-SASA VL-A60M (Fab, V domains shown)
VH: B1 VH with I103K
VL: B1 VL with A60M
notes: as for B1
For B18, the dissociation constant Kd turned out to be 4.52 nM, the “Ratio WT-kd/clone-kd” value worked out at 1.12, the koff is 0.00085 s⁻¹ and the kon amounted to 188000 M⁻¹ s⁻¹.

B19: TB640_005 Fab-SASA VL-L30A (Fab, V domains shown)
VH: B1 VH with I103K
VL: B1 VL with L30A
notes: as for B1
With B19, the Kd stood at 27.3 nM, the “Ratio WT-kd/clone-kd” value is 0.51, the off-rate constant (koff) was 0.00187 s⁻¹ and the on-rate (kon) was found to be 68600 M⁻¹ s⁻¹.

B20: TB640_005 Fab-SASA VH-T28P (Fab, V domains shown)
VH: B1 VH with T28P, I103K
VL: B1 VL
notes: as for B1
For B20, the Kd was 8.95 nM, the “Ratio WT-kd/clone-kd” value is 1.21, the koff was found to be 0.000786 s⁻¹ and the kon turned out to be 87800 M⁻¹ s⁻¹.

B21: TB640_005 Fab-SASA VL-Q27E (Fab, V domains shown)
VH: B1 VH with I103K
VL: B1 VL with Q27E
notes: as for B1
Take B21: the Kd was 13.4 nM, the “Ratio WT-kd/clone-kd” value was 1.09, the koff worked out at 0.000873 s⁻¹ and the kon is 65300 M⁻¹ s⁻¹.

B22: TB640_005 Fab-SASA VH-V114H (Fab, V domains shown)
VH: B1 VH with I103K, V114H
VL: B1 VL
notes: as for B1
On to B22, for which the dissociation constant Kd worked out at 5.47 nM, the “Ratio WT-kd/clone-kd” value was 1.62, the koff amounted to 0.000589 s⁻¹ and the kon came out at 108000 M⁻¹ s⁻¹.

B23: TB640_005 Fab-SASA VH-V114K (Fab, V domains shown)
VH: B1 VH with I103K, V114K
VL: B1 VL
notes: as for B1
As for B23, the equilibrium dissociation constant (Kd) was found to be 5.97 nM, the “Ratio WT-kd/clone-kd” value came to 1.33, the off-rate (koff) is 0.000717 s⁻¹ and the kon worked out at 120000 M⁻¹ s⁻¹.

B24: TB640_005 Fab-SASA VL-L101N (Fab, V domains shown)
VH: B1 VH with I103K
VL: B1 VL with L101N
notes: as for B1
Regarding B24, the Kd is 9.76 nM, the “Ratio WT-kd/clone-kd” value is 0.3, the koff was 0.00321 s⁻¹ and the kon was found to be 328000 M⁻¹ s⁻¹.

B25: TB640_005 Fab-SASA VL-Q27H (Fab, V domains shown)
VH: B1 VH with I103K
VL: B1 VL with Q27H
notes: as for B1
On to B25, for which the Kd turned out to be 14.9 nM, the “Ratio WT-kd/clone-kd” value was 0.97, the koff stood at 0.000979 s⁻¹ and the kon is 65700 M⁻¹ s⁻¹.

B26: TB640_005 Fab-SASA VH-V114G (Fab, V domains shown)
VH: B1 VH with I103K, V114G
VL: B1 VL
notes: as for B1
As to B26, the equilibrium dissociation constant (Kd) worked out at 3.5 nM, the “Ratio WT-kd/clone-kd” value turned out to be 1.47, the off-rate (koff) stood at 0.000647 s⁻¹ and the kon was 185000 M⁻¹ s⁻¹.

B27: TB640_005 Fab-SASA VL-I33A (Fab, V domains shown)
VH: B1 VH with I103K
VL: B1 VL with I33A
notes: as for B1
As for B27, the affinity, expressed as Kd, was 20.1 nM; the “Ratio WT-kd/clone-kd” value came out at 0.62; the off-rate constant (koff) came out at 0.00153 s⁻¹; the kon turned out to be 75900 M⁻¹ s⁻¹.

B28: TB640_005 Fab-SASA VH-L112M (Fab, V domains shown)
VH: B1 VH with I103K, L112M
VL: B1 VL
notes: as for B1
For the molecule B28, the affinity, expressed as Kd, was 13.7 nM; the “Ratio WT-kd/clone-kd” value was determined as 1.97; the dissociation rate constant (koff) stood at 0.000483 s⁻¹; the kon is 35300 M⁻¹ s⁻¹.

What is called Kd is the free concentration of one partner at which half of the binding sites on the other are occupied at equilibrium, for simple one-to-one binding. High values mean lower affinity, low ones higher affinity. Usually koff stands for a measure of how fast the partners let go of each other. The term kon denotes the rate constant with which the complex forms. Read a low kon as slow association.
